# Test results as given in the RNAGym collection of RNA variant scans (doi:10.1073/pnas.2313332121).
# Variants at the floor of the assay were thinned out.
# B1: TPR 5TU (parent)
# chain: GGAUCUUCUCGAUCUAACAAAAAAGACAAAUCUGCCACAAAGCUUGAGAGCAUCUUCGGAUGCAGAGGCGGCAGCCUUCGGUGGCGCGAUAGCGCCAACGUUCUCAACUAUGACACGCAAAACGCGUGCUCCGUUGAAUGGAGUUUAUCAUG
# Variants of: B1
# Test: polymerase ribozyme fitness, log enrichment relative to wild type (log ratio); higher = more active; in vitro selection for triplet polymerase activity
# Summary of the method: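 In triplicate, a single round of in vitro selection was run on each mutant library, PCR-built and transcribed, covering one subunit of a heterodimeric triplet polymerase ribozyme. Frozen incubation at −7 °C followed annealing with a biotinylated primer, partner subunit and triplets, and extended constructs were then gel-excised, streptavidin-captured and taken through RT-PCR. Fitness is the logarithm of genotype enrichment over wild-type enrichment, from inverse-variance-weighted replicate averages of Illumina-sequenced inputs and outputs. […] only genotypes with ≥10 input reads and ≥1 read per output were kept.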
row,Variant,polymerase ribozyme fitness (log ratio)
1,U56A U82G U139A,-4.02
2,C54U C69A,-3.63
3,C54U C57G G94C U134A G136C,≤ -4.2
4,C54U C85A A119U U130G,-3.83
5,C54A G86U U101G,-3.14
6,C54U C57U G83C A106C U135C,≤ -4.2
7,U55C A91U U144A,≤ -4.2
8,U55C G124C,-1.14
9,U56A G58U A98U G100C,≤ -4.2
10,C54U A142U,-0.665
11,U55A G94A,-0.894
12,U55A C118G A147U,0.0992
13,U56A G62A U78C G83U,-3.55
14,U55G C125G U151G,≤ -4.2
15,U55G G92U G117A A121U A122U U151G,≤ -4.2
16,U55A G86U,-1.44
17,U55A G86A,-1.59
18,U55G G88U,-4.02
19,U56A C95G A98G,-1.91
20,U56A U135A,-1.16
21,U56A C85G G86U,≤ -4.2
22,C54G G84C U109C U134G U148A,≤ -4.2
23,U56C,-0.389
24,U56A,-0.324

row,Variant,polymerase ribozyme fitness (log ratio)
1,C54A U77A C96G U127G,≤ -4.2
2,U55A C93G,-3.83
3,U56A U127G,-2.83
4,U55G A73G,-0.595
5,U56A G70C G117C,-3.79
6,C54U C103U C123A U148G,≤ -4.2
7,U55G U148C,-2.46
8,U55G U61A,-3.22
9,C54U A73C G94U C116G C125A U134A,≤ -4.2
10,C54G G86U U135A U139A,≤ -4.2
11,C54G U55A G94U A98C A150G,-3.84
12,U55A U127A A142U,≤ -4.2
13,U55G U82A G84U U102C,-3.21
14,U56A C75U A121C G128U,-2.63
15,U56A C75G G94A C105U G133U,-4.17
16,C54A U61A A73G U77G G100A,≤ -4.2
17,C54U U56A C93U G133U,-4.06
18,C54G G74C G80A C96U A138U,≤ -4.2
19,U56A A106C U109G C114U C118A,≤ -4.2
20,U55G C63A U134G,-3.01
21,U56A C93U U102G G140A,≤ -4.2
22,U55A C76G C85A A113U G128A,≤ -4.2
23,U55G C96A U109G G143A,-3.3
24,U56A C87U C131G,-3.21

row,Variant,polymerase ribozyme fitness (log ratio)
1,U56A G84A C105A C131U,-1.2
2,U55G G94A A98U,-0.256
3,U55C G88A C96U,≤ -4.2
4,U56C C57A,0.0626
5,U55A A66G G86A A97G U146G,≤ -4.2
6,U56A A73U C76A A97U,≤ -4.2
7,U55A A119G,-1.38
8,U55A U61G,-3.71
9,U55A C87U A137C,-3.92
10,U56A U148C,-1.25
11,U55A A97G C116A,1.12
12,U55A A97G,-0.39
13,C54G C105U,-1.24
14,U56A C96A,-0.833
15,U55G G58C U144G,-0.023
16,C54U U55A A120G G143U,-2.38
17,C54U G117C C123U,-0.0466
18,U55C,0.0178
19,U55A,-0.301
20,U55G,-0.284
21,U56A A73U G140A,-4.06
22,C54U C93A,-2.6
23,U55A G58U C79U G88A A106G,≤ -4.2
24,U55G U56A G59C C99G A142G,-2.78

row,Variant,polymerase ribozyme fitness (log ratio)
1,U55A U90A G100C C118U,≤ -4.2
2,U55A A91U C108A U130C G133U,≤ -4.2
3,U55A G71A G80C,≤ -4.2
4,U55A C116U,-0.684
5,U56C C103G C129U,-4.1
6,C54U U55A A98U U144A,-1.24
7,U56A C131U,0.529
8,U55A A60G U102A U148A,-3.91
9,U56A G81C G83A C87G A107G A122C G141U,≤ -4.2
10,U55G G84A,-1.68
11,U56A C96U U148A,-3.44
12,U55A G84U G124A,-1.26
13,C54U A60G A64G C85U C99A C105U A106C,≤ -4.2
14,U56C A120C C149U,-1.17
15,C54U C118U U145A,-0.457
16,C54U G83A A147U,-0.818
17,U55A C85G C125U U144A,-3.47
18,C54U G59C A64C G94U A120G,≤ -4.2
19,C54G C87U G143C,-3.99
20,U56A C76U A113C,-2.48
21,U56A G94A,-1.28
22,U56A G143C,-2.27
23,U55G C96U,-0.6
24,U55A G65U G70U C87A C95U A98G A137C G141A G143C,≤ -4.2

row,Variant,polymerase ribozyme fitness (log ratio)
1,U55G C69A C87U C105A A138U,≤ -4.2
2,U55A G59A U61C U135C A142G,-3.84
3,U55C C95A C96G G117C,-2.16
4,U56C G80U,-0.2
5,U55G G86U U145A,-0.475
6,C54U G81A C93U C105A,-2.59
7,U56A U61G G88C G136U,≤ -4.2
8,U55A C57A C93U G126U,-0.627
9,U55A G81A C87U G136A,0.0612
10,U56C C87G,≤ -4.2
11,U55A G84A A121U,-1.24
12,C54A G92U,-2.39
13,U55G C57A G59C C85A A115G A119U,-2.01
14,C54G C87U A122G U145C,-1.82
15,U55G G58C C116U G143A,-1.24
16,U56A C76G C85U A91G U111G C118U G140A G143A,≤ -4.2
17,U55G U104A A122G A137C,≤ -4.2
18,U55C G59C A107C C131U U134G G136C,≤ -4.2
19,U55G C79G,-3.78
20,U55G G94A A115G A122U U134C U139C G143A U148C,≤ -4.2
21,U56A A121C C149G,-3.14
22,U55A G88C U90C A122G G124A U148A,-4.18
23,U55G C116G,0.357
24,U55C C57A A73G C96U A121C C131U,1.56

row,Variant,polymerase ribozyme fitness (log ratio)
1,C54U C85U A98G U134A,-3.35
2,C54G C57A G58C G94A,-0.504
3,U56A G81C C87U,-1.03
4,U55A G83U C85A U101C C116A,≤ -4.2
5,C54U U55A C93U,-0.48
6,C54U G59A A106G,0.342
7,U55A C69A C76U U82G,-3.45
8,U56A G86C,≤ -4.2
9,U56A G86U,-0.958
10,U56A G58A A73U C96G,-1.81
11,U56A U78G G112C U139C,≤ -4.2
12,U56A G84A A91G,-3.59
13,U56A C85U U144C,-0.306
14,U55A G83A G126A,0.425
15,U56A U144C,0.537
16,U55C C85A A119G A137U,≤ -4.2
17,C54U U55G G80U A91G A98C,-3.9
18,U55G G59U U127C,-2.75
19,U55A G59U C87U,-2.31
20,C54U U82C U90C C96A U101G,≤ -4.2
21,C54U U56G C57U C76U C95G,-2.9
22,U56C C87U A110G,-3.04
23,U56A C76G,≤ -4.2
24,C54U C85U,-0.491

row,Variant,polymerase ribozyme fitness (log ratio)
1,U56A C57U C63U U101A U104C C108U,≤ -4.2
2,U55A C76G C93U C103G G143A A150U,≤ -4.2
3,C54G C96G G128U,≤ -4.2
4,C54A U82A U134A U146C,-3.03
5,U55A A64G,-3.3
6,U55G G83U C85U A89U C95A,-3.88
7,U56A A106G,-0.585
8,C54A U56A C118U,-2.14
9,C54U C123U G124A U144C,-0.47
10,U55A G92U C96A G117A A121U,-1.48
11,U55A G59A C116A,2.35
12,U56A C69A C79U C93G U151A,≤ -4.2
13,C54U C75U,-0.0882
14,U55C A91G,-3.06
15,C54U U82A,-0.0444
16,U55A C63U C85U C103A G136A A147U,-0.434
17,U55A G62C G68U C96U A121U,≤ -4.2
18,U55G A73U U146C,-1.74
19,U55A G92U G124C,-0.918
20,U56A C87U C96U C103G,-3.09
21,C54G A64G G94A G100U C105A,≤ -4.2
22,U56A G94A A97U,-1.41
23,U56A C75U,-0.839
